Read-outs that look alike come from different tables or passages of the source.
Assays:
SemiSWEET [1] = experiment: native MS
SemiSWEET [2] = experiment: native MS; remark: listed apart in the source

stoichiometry N (SemiSWEET [1]): 2 | stoichiometry N (SemiSWEET [2]): 2
Substance: SemiSWEET (natural protein)

— publication PMC10932607
